Laboratory results from doi:10.1101/2023.03.27.534416 (bioRxiv, 2023).

Target: the molecule itself
Test: MST

B1: MRE11 structured-domain (1-411 aa) (domain or fragment, UniProt P49959 1-411, looked up)
chain: MSTADALDDENTFKILVATDIHLGFMEKDAVRGNDTFVTLDEILRLAQENEVDFILLGGDLFHENKPSRKTLHTCLELLRKYCMGDRPVQFEILSDQSVNFGFSKFPWVNYQDGNLNISIPVFSIHGNHDDPTGADALCALDILSCAGFVNHFGRSMSVEKIDISPVLLQKGSTKIALYGLGSIPDERLYRMFVNKKVTMLRPKEDENSWFNLFVIHQNRSKHGSTNFIPEQFLDDFIDLVIWGHEHECKIAPTKNEQQLFYISQPGSSVVTSLSPGEAVKKHVGLLRIKGRKMNMHKIPLHTVRQFFMEDIVLANHPDIFNPDNPKVTQAIQSFCLEKIEEMLENAERERLGNSHQPEKPLVRLRVDYSGGFEPFSVLRFSQKFVDRVANPKDIIHFFRHREQKEKTGEE
modifications: amine-reactive AlexaFluor-647 dye on the labelled copy; the titrated copy is unlabelled
Q: With B1 as the protein, how does the Kd read?
A: Its Kd is 370 ± 80 nM.
